The values that follow come from patent publication US20190169311A1.

pEC50, pKd: −log10 of the molar value.

Assay [1] has as its target TFECDHis (human) (UniProt P13726). In words: cross-competition ELISA; competitor: coated 11. A general note: ELISA stands for enzyme-linked immunosorbent assay.
For assay [2] the target is unchanged. In words: cross-competition ELISA; competitor: coated 087-Lg6.
Assay [3] shares this target. Nature of the assay: cross-competition ELISA; competitor: coated 111.
The target is the same in assay [4]. Nature of the assay: cross-competition ELISA; competitor: coated 092-A09.
Assay [5] has the same target. In words: cross-competition ELISA; competitor: coated 101.
Assay [6] shares this target. In words: cross-competition ELISA; competitor: coated 114.
Assay [7] has the same target. In words: SPR (BIAcore 3000), antibody immobilized, TFECDHis as analyte.
Assay [8] shares this target. Nature of the assay: cross-competition ELISA; competitor: coated 44.
The target is the same in assay [9]. In words: ELISA, coated TFECDHis; mean of 3 experiments.

The pKd is the negative decadic logarithm of the Kd, by convention in mol/L. Lower therefore signals a large Kd. A word on the pEC50: it is the negative decadic logarithm of the EC50, by convention in mol/L. The low end stands for a high EC50, the high end for a low EC50. For the substance HuMab-TF-011 (antibody), the competition value (unit not given) in assay [1] was 20; in assay [2] it was 929; in assay [3], 175; in assay [4] it was 21; in assay [5] it was 23; in assay [6], 19. This substance also yielded a competition value (unit not given) in assay [8] of 143. The substance also had a pKd in [7] of 8.50. Moreover, in assay [9], the pEC50 was 9.80.
